From paper PMC2783589

Molecular target: revised CpaD from Aspergillus flavus NRRL3357 (full length, with the 43 N-terminal residues added) (Aspergillus flavus NRRL3357)
Test: SEC

stoichiometry N: 2
Substance: revised CpaD from Aspergillus flavus NRRL3357 (full length, with the 43 N-terminal residues added) (enzyme)
